Measurements taken from patent US20190016794A1 (Boehringer Ingelheim, published 2019).

Legend:
membrane bound TNF-alpha [1] = molecular target: T1, membrane bound TNF-alpha; assay: flow cytometry, mTNF-transfected Jurkat cells (geomean)
T1 construct: whole, on cells; also called mTNF; membrane expressed TNF-alpha
Method: (§1) All reagents were prepared in flow cytometry staining buffer (BioLegend). Membrane expressed TNF-alpha transfected cell lines (Jurkat and CHO) and parental cell lines were harvested from tissue culture vessels, washed, counted and resuspended to 1×10̂6 cells/ml in flow cytometry staining buffer. One hundred microliters of the cell suspension was added to 96 well microtiter plates and placed on ice. Titrations of test compounds were prepared and 50 uL was added to the cells. After sixty minute incubation on ice, the cell+test compounds were washed and 50 uL of a secondary antibody (Jackson ImmunoResearch) was added. The samples were incubated in the dark, at 4 C, for 60 minutes, followed by washes. After a final wash the cells were resuspended in 60 uL of fixative (BD Bioscience). Median fluorescence was determined for each sample in a flow cytometer and plotted versus the concentration of the test sample. EC₅₀ values were calculated using the 4 Parameter Logistic enabled by the Excel add-in XLfit (Activity Base software, ID Business Solutions, Ltd.).

recombinant human IL23 [2] = molecular target: T2, recombinant human IL23 (human, UniProt P29460 23-328); assay: cell-based or functional assay
T2 sequence 1: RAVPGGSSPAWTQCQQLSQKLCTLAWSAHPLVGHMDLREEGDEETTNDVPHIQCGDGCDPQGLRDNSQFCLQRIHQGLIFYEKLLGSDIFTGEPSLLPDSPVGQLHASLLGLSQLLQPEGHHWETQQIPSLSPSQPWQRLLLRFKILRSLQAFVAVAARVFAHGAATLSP
T2 sequence 2: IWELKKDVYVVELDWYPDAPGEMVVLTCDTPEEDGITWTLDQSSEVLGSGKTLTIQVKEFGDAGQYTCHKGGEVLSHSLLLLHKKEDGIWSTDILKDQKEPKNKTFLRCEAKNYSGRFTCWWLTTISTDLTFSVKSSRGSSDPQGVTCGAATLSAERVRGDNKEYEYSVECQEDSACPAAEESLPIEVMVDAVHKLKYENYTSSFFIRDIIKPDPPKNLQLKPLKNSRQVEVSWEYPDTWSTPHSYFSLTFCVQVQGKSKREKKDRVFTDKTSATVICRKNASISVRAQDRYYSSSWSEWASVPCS

recombinant human IL23 [3] = molecular target: T2, recombinant human IL23; assay: cell-based or functional assay; remark: listed apart in the source
Linked human IL-23 = molecular target: T3, Linked human IL-23 (human, UniProt P29460 23-328); assay: SPR (ProteOn XPR36), compound captured on goat anti-human IgG Fc, linked human IL-23 injected at 0.625-10 nM
T3 construct: Printed as 'Linked human IL-23 (Boehringer Ingelheim Pharmaceuticals, Inc)' in the SPR method
T3 sequence 1: T2 sequence 1
T3 sequence 2: T2 sequence 2
Method: (§2) SPR experiments were performed on a ProteOn XPR36 instrument (Bio Rad). A GLM chip was preconditioned with sequential injections of 60 sec of 0.5% SDS, 50 mM NaOH, and 100 mM HCl at a flow rate of 30 μl/min both vertical and horizontal directions. […] Goat-anti-human IgG (GAHA) Fc gamma (Invitrogen) at a concentration of 30 μg/ml in 10 mM, pH 5.0 sodium acetate buffer was immobilized to 8,000 resonance units on the activated GLM chip in 6 horizontal channels. The chip was finally deactivated with 1 M ethanolamine HCl in 6 horizontal channels. The prepared GAHA chip was rotated to vertical direction to capture test compounds, over 5 vertical channels and the last channel was used as a column reference. The captured chip was then rotated again to the horizontal direction for binding. […] The dissociation was allowed for 2 hour. […] The regenerated GAHA was ready for another binding cycle.

human TNF-alpha [4] = molecular target: T4, human TNF-alpha (human, UniProt P01375 77-233); assay: SPR (ProteOn XPR36), compound captured on goat anti-human IgG Fc, antigen injected
T4 construct: also called recombinant human TNF-alpha; rhTNF-alpha
Method: as §2

recombinant human IL23 [5] = molecular target: T2, recombinant human IL23; assay: cell-based or functional assay; remark: listed apart in the source
membrane bound TNF-alpha [6] = molecular target: T1, membrane bound TNF-alpha; assay: flow cytometry, mTNF-transfected CHO cells (geomean)
Method: as §1

recombinant human IL23 [7] = molecular target: T2, recombinant human IL23; assay: cell-based or functional assay; remark: listed apart in the source
human TNF-alpha [8] = molecular target: T4, human TNF-alpha; assay: cell-based or functional assay
recombinant human IL23 [9] = molecular target: T2, recombinant human IL23; assay: cell-based or functional assay; remark: listed apart in the source
[10] = molecular target: T5, recombinant cynomolgus IL23 (cynomolgus); assay: cell-based or functional assay
T5 chain 1: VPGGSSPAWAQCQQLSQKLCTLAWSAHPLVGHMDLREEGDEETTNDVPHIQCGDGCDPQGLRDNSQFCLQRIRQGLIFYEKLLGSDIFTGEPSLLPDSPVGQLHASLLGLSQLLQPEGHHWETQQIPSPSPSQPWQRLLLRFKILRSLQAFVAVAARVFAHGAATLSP
T5 chain 2: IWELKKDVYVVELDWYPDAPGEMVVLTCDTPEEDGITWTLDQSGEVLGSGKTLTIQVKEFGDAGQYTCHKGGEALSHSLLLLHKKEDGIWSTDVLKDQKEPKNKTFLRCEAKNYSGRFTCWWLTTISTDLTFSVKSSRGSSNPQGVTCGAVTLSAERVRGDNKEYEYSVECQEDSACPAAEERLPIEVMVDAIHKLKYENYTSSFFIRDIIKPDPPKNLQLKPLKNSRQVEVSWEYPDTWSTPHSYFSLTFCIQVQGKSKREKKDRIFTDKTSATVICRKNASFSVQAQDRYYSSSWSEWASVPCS

recombinant human IL23 [11] = molecular target: T2, recombinant human IL23; assay: cell-based or functional assay; remark: listed apart in the source
human TNF-alpha [12] = molecular target: T4, human TNF-alpha; assay: cell-based or functional assay; remark: listed apart in the source
human TNF-alpha [13] = molecular target: T4, human TNF-alpha; assay: cell-based or functional assay; remark: listed apart in the source
human TNF-alpha [14] = molecular target: T4, human TNF-alpha; assay: cell-based or functional assay; remark: listed apart in the source

T4 sequence (P01375 77-233 limits assumed): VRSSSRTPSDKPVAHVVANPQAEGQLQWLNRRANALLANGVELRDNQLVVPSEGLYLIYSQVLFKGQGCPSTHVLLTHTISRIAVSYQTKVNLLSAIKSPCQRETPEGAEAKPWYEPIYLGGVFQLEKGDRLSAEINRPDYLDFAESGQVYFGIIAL
T1 sequence (P01375 whole entry): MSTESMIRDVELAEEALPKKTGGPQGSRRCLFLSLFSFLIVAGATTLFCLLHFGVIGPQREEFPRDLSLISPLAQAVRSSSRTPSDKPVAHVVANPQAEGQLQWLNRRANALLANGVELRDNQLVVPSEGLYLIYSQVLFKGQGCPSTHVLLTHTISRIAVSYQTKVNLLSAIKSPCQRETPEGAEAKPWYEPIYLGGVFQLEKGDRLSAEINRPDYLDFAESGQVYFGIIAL

EC50 (membrane bound TNF-alpha [1]): 0.2 nM | First test IC50, IL-23-dependent STAT3 activation (luciferase) (recombinant human IL23 [2]): 0.17 nM | GEOMEAN IC50, IL-23-dependent STAT3 activation (luciferase) (recombinant human IL23 [2]): 0.19 nM | GEOMEAN IC90, IL-23-dependent STAT3 activation (luciferase) (recombinant human IL23 [2]): 0.859 nM | IL23A pSTAT3 (MG) IC50 (recombinant human IL23 [3]): 140 pM | IL23A pSTAT3 (MG) IC90 (recombinant human IL23 [3]): 830 pM | Kd (Linked human IL-23): 0.007 nM | Kd (human TNF-alpha [4]): 0.00411 nM | hIL23 pSTAT3 DB assay IC50 (recombinant human IL23 [5]): 300 pM | hIL23 pSTAT3 DB assay IC90 (recombinant human IL23 [5]): 700 pM | EC50 (membrane bound TNF-alpha [6]): 0.45 nM | Dual Phospho DB-pSTAT3 IC50 (recombinant human IL23 [7]): 230 pM | Dual Phospho DB-pSTAT3 IC90 (recombinant human IL23 [7]): 770 pM | Dual Phospho Jurkat-pNf-Kb IC50 (human TNF-alpha [8]): 260 pM | Dual Phospho Jurkat-pNf-Kb IC90 (human TNF-alpha [8]): 340 pM | huIL23 MSA IC50 (recombinant human IL23 [9]): 0.2 nM | huIL23 MSA IC90 (recombinant human IL23 [9]): 1.7 nM | CynoIL23 MSA IC50 [10]: 0.077 nM | CynoIL23 MSA IC90 [10]: 1.2 nM | IC50, IL-23-dependent STAT3 activation (DB-STAT3Luc10 luciferase) (recombinant human IL23 [11]): 0.212 nM | IC90, IL-23-dependent STAT3 activation (DB-STAT3Luc10 luciferase) (recombinant human IL23 [11]): 0.965 nM | TNF-IL8 Whole Blood IC50 (human TNF-alpha [13]): 0.34 nM | TNF-IL8 Whole Blood IC90 (human TNF-alpha [13]): 0.61 nM | HeLa IL8 Hi-Hu-TNF IC50 (human TNF-alpha [14]): 0.32 nM | HeLa IL8 Hi-Hu-TNF IC90 (human TNF-alpha [14]): 0.53 nM | HeLa IL8 Lo-Hu-TNF IC50 (human TNF-alpha [14]): 0.0092 nM | HeLa IL8 Lo-Hu-TNF IC90 (human TNF-alpha [14]): 0.035 nM
B1: Compound E (bispecific antibody)
chain 1: DIQMTQSPSSLSASVGDRVTITCKASRDVAIAVAWYQQKPGKVPKLLIYWASTRHTGVPSRFSGSGSRTDFTLTISSLQPEDVADYFCHQYSSYPFTFGSGTKLEIKGGGSGGGGQVQLVESGGGVVQPGRSLRLSCAASGFIFSSYAMHWVRQAPGNGLEWVAFMSYDGSNKKYADSVKGRFTISRDNSKNTLYLQMNSLRAEDTAVYYCARDRGIAAGGNYYYYGMDVWGQGTTVTVSSLGGGSGASTKGPSVFPLAPSSKSTSGGTAALGCLVKDYFPEPVTVSWNSGALTSGVHTFPAVLQSSGLYSLSSVVTVPSSSLGTQTYICNVNHKPSNTKVDKRVEPKSCDKTHTCPPCPAPEAAGGPSVFLFPPKPKDTLYITREPEVTCVVVDVSHEDPEVKFNWYVDGVEVHNAKTKPREEQYNSTYRVVSVLTVLHQDWLNGKEYKCKVSNKALPAPIEKTISKAKGQPREPQVYTLPPSREEMTKNQVSLTCLVKGFYPSDIAVEWESNGQPENNYKTTPPVLDSDGSFFLYSKLTVDKSRWQQGNVFSCSVMHEALHNHYTQKSLSLSPGK
chain 2: EIVLTQSPATLSLSPGERATLSCRASQSVYSYLAWYQQKPGQAPRLLIYDASNRATGIPARFSGSGSGTDFTLTISSLEPEDFAVYYCQQRSNWPPFTFGPGTKVDIKGGGSGGGGQVQLVQSGAEVKKPGSSVKVSCKASGYTFTDQTIHWMRQAPGQGLEWIGYIYPRDDSPKYNENFKGKVTITADKSTSTAYMELSSLRSEDTAVYYCAIPDRSGYAWFIYWGQGTLVTVSSLGGGSGRTVAAPSVFIFPPSDEQLKSGTASVVCLLNNFYPREAKVQWKVDNALQSGNSQESVTEQDSKDSTYSLSSTLTLSKADYEKHKVYACEVTHQGLSSPVTKSFNRGEC
notes: GS linkers, isotype IgG1KO-YTE
L929 TNF Cytotox IC50 (human TNF-alpha [12]): 0.0041 nM | L929 TNF Cytotox IC90 (human TNF-alpha [12]): 0.017 nM
